{"source": "paper PMC9263355", "about": "(2022)", "molecular_target": "4-1BB (Homo sapiens, UniProt Q07011)", "sequence (Q07011 24-255)": "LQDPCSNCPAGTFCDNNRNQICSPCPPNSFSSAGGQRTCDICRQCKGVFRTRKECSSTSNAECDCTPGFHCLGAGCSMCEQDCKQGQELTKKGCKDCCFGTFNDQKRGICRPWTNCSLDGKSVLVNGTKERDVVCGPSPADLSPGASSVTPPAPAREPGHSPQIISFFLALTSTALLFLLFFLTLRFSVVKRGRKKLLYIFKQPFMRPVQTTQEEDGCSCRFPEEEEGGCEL", "assay": "fluorescence anisotropy", "data": [{"binder": "Galectin-9N N-terminal CRD (protein) MAFSGSQAPYLSPAVPFSGTIQGGLQDGLQITVNGTVLSSSGTRFAVNFQTGFSGNDIAFHFNPRFEDGGYVVCNTRQNGSWGPEERKTHMPFQKGMPFDLCFLVQSSDFKVMVNGILFVQYFHRVPFHRVDTISVNGSVQLSYISFQ", "values": [{"measurement": "Kd", "result": "~1.5", "unit": "µM"}]}]}
